This is an account of results in article PMC6328869, “Functional and structural studies of tolloid-like 1 mutants associated with atrial-septal defect 6” (Bioscience Reports, 2018).

For orientation: Kd means the constant that tells how readily two partners part at equilibrium. In general, koff refers to a measure of how fast the partners let go of each other. As usually defined, the kon is a measure of how fast the partners come together.

Assay [1] concerns the target T1, recombinant murine chordin (murine, UniProt Q9Z0E2 27-948).
T1 construct: Chordin, murine, recombinant (R&D Systems); The source and species of chordin are told for the cleavage assay; source: bought: R&D Systems
T1 sequence (looked up): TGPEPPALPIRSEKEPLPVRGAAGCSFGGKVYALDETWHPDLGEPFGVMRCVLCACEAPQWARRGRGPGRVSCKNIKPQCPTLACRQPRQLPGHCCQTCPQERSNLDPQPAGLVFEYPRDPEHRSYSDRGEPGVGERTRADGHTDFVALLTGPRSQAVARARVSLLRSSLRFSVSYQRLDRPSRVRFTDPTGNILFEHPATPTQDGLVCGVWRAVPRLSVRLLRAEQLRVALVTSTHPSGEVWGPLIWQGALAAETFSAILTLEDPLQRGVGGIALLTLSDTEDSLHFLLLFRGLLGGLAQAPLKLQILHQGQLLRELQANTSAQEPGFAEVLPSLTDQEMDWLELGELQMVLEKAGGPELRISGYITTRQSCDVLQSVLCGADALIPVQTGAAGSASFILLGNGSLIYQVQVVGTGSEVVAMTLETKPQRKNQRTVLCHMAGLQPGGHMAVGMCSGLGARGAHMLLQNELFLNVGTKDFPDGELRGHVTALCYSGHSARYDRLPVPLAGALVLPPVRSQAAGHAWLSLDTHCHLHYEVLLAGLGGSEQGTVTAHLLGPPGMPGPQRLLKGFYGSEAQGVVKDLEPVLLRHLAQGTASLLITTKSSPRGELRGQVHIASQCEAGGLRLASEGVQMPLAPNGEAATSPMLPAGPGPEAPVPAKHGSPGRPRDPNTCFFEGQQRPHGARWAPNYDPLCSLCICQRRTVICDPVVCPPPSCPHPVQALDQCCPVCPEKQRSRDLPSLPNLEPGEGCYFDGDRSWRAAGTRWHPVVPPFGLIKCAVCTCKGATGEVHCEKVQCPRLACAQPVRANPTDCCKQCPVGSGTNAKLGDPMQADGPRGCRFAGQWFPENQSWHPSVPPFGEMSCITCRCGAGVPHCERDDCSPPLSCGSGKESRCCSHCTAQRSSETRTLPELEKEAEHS
As to the kind of experiment: SPR; Sensiq Pioneer biosensor; chordin amine-coupled (NHS/EDC, 10 mM acetate pH 4.5) to a COOH1 SPR chip; TLL1 variant as free analyte at 10-400 nM, 10 ul/min for 11 min; HBS-TE (HEPES-buffered saline, 0.005% Tween 20), 25 °C; regeneration with 10 mM HCl; global fitting; Kd from koff/kon. Conditions: both partners purified. Background: SPR reads the build-up and loss of mass on a sensor chip optically.

Assay [2] has as its target T1, recombinant murine chordin. The assay is described as follows: cell-based or functional assay.

B1: recombinant wild-type mammalian tolloid-like 1 (TLL1) (enzyme, human, UniProt O43897-1 148-1013, looked up)
chain: AATSRTERIWPGGVIPYVIGGNFTGSQRAMFKQAMRHWEKHTCVTFIERSDEESYIVFTYRPCGCCSYVGRRGNGPQAISIGKNCDKFGIVVHELGHVIGFWHEHTRPDRDNHVTIIRENIQPGQEYNFLKMEPGEVNSLGERYDFDSIMHYARNTFSRGMFLDTILPSRDDNGIRPAIGQRTRLSKGDIAQARKLYRCPACGETLQESNGNLSSPGFPNGYPSYTHCIWRVSVTPGEKIVLNFTTMDLYKSSLCWYDYIEVRDGYWRKSPLLGRFCGDKLPEVLTSTDSRMWIEFRSSSNWVGKGFAAVYEAICGGEIRKNEGQIQSPNYPDDYRPMKECVWKITVSESYHVGLTFQSFEIERHDNCAYDYLEVRDGTSENSPLIGRFCGYDKPEDIRSTSNTLWMKFVSDGTVNKAGFAANFFKEEDECAKPDRGGCEQRCLNTLGSYQCACEPGYELGPDRRSCEAACGGLLTKLNGTITTPGWPKEYPPNKNCVWQVVAPTQYRISVKFEFFELEGNEVCKYDYVEIWSGLSSESKLHGKFCGAEVPEVITSQFNNMRIEFKSDNTVSKKGFKAHFFSDKDECSKDNGGCQHECVNTMGSYMCQCRNGFVLHDNKHDCKEAECEQKIHSPSGLITSPNWPDKYPSRKECTWEISATPGHRIKLAFSEFEIEQHQECAYDHLEVFDGETEKSPILGRLCGNKIPDPLVATGNKMFVRFVSDASVQRKGFQATHSTECGGRLKAESKPRDLYSHAQFGDNNYPGQVDCEWLLVSERGSRLELSFQTFEVEEEADCGYDYVELFDGLDSTAVGLGRFCGSGPPEEIYSIGDSVLIHFHTDDTINKKGFHIRYKSIRYPDTTHTKK
notes: Human tolloid-like 1 (TLL1), functional enzyme lacking the signal peptide and the latency pro-domain; encoded by nucleotides 1089-3686 of NM_012464.4 (mRNA variant 1 TLL1); Expressed behind the signal peptide of the procollagen I alpha 1 chain (nucleotides 5127-5192 of NM_007400.1 as printed) for secretion; also called WT; native TLL1; source: HT-1080 cells, stably transfected (pIRESneo3), …
On to B1, for which, in assay [1], the Ka amounted to 8.6e+06 M⁻¹, the dissociation constant (Kd) is 0.117 µM, the koff is 0.000305 s⁻¹ and the on-rate constant (kon) was 2600 M⁻¹ s⁻¹.

B2: recombinant TLL1 mutated variant V238A (enzyme, human, UniProt O43897-1 148-1013, looked up)
chain: AATSRTERIWPGGVIPYVIGGNFTGSQRAMFKQAMRHWEKHTCVTFIERSDEESYIVFTYRPCGCCSYVGRRGNGPQAISIGKNCDKFGIAVHELGHVIGFWHEHTRPDRDNHVTIIRENIQPGQEYNFLKMEPGEVNSLGERYDFDSIMHYARNTFSRGMFLDTILPSRDDNGIRPAIGQRTRLSKGDIAQARKLYRCPACGETLQESNGNLSSPGFPNGYPSYTHCIWRVSVTPGEKIVLNFTTMDLYKSSLCWYDYIEVRDGYWRKSPLLGRFCGDKLPEVLTSTDSRMWIEFRSSSNWVGKGFAAVYEAICGGEIRKNEGQIQSPNYPDDYRPMKECVWKITVSESYHVGLTFQSFEIERHDNCAYDYLEVRDGTSENSPLIGRFCGYDKPEDIRSTSNTLWMKFVSDGTVNKAGFAANFFKEEDECAKPDRGGCEQRCLNTLGSYQCACEPGYELGPDRRSCEAACGGLLTKLNGTITTPGWPKEYPPNKNCVWQVVAPTQYRISVKFEFFELEGNEVCKYDYVEIWSGLSSESKLHGKFCGAEVPEVITSQFNNMRIEFKSDNTVSKKGFKAHFFSDKDECSKDNGGCQHECVNTMGSYMCQCRNGFVLHDNKHDCKEAECEQKIHSPSGLITSPNWPDKYPSRKECTWEISATPGHRIKLAFSEFEIEQHQECAYDHLEVFDGETEKSPILGRLCGNKIPDPLVATGNKMFVRFVSDASVQRKGFQATHSTECGGRLKAESKPRDLYSHAQFGDNNYPGQVDCEWLLVSERGSRLELSFQTFEVEEEADCGYDYVELFDGLDSTAVGLGRFCGSGPPEEIYSIGDSVLIHFHTDDTINKKGFHIRYKSIRYPDTTHTKK
notes: Human tolloid-like 1 (TLL1), functional enzyme lacking the signal peptide and the latency pro-domain; encoded by nucleotides 1089-3686 of NM_012464.4 (mRNA variant 1 TLL1); mutation found in ASD6 patients, in the catalytic domain; Same construct as m1 (procollagen I alpha 1 signal peptide for secretion, C-terminal 7xHis) with the point mutation; also called Val238Ala; mutation 2; source: HT-1080 …
In the case of B2, the “cleavage of chordin (densitometry of the intact chordin band after SDS/PAGE), activity against wild-type TLL1” value in assay [2] was ~25 % lower than wild-type TLL1. In addition, in assay [1], the Ka was found to be 55000 M⁻¹, the Kd was 18 µM, the koff stood at 0.0006 s⁻¹ and the kon is 33 M⁻¹ s⁻¹.

B3: recombinant TLL1 mutated variant I629V (enzyme, human, UniProt O43897-1 148-1013, looked up)
chain: AATSRTERIWPGGVIPYVIGGNFTGSQRAMFKQAMRHWEKHTCVTFIERSDEESYIVFTYRPCGCCSYVGRRGNGPQAISIGKNCDKFGIVVHELGHVIGFWHEHTRPDRDNHVTIIRENIQPGQEYNFLKMEPGEVNSLGERYDFDSIMHYARNTFSRGMFLDTILPSRDDNGIRPAIGQRTRLSKGDIAQARKLYRCPACGETLQESNGNLSSPGFPNGYPSYTHCIWRVSVTPGEKIVLNFTTMDLYKSSLCWYDYIEVRDGYWRKSPLLGRFCGDKLPEVLTSTDSRMWIEFRSSSNWVGKGFAAVYEAICGGEIRKNEGQIQSPNYPDDYRPMKECVWKITVSESYHVGLTFQSFEIERHDNCAYDYLEVRDGTSENSPLIGRFCGYDKPEDIRSTSNTLWMKFVSDGTVNKAGFAANFFKEEDECAKPDRGGCEQRCLNTLGSYQCACEPGYELGPDRRSCEAACGGLLTKLNGTVTTPGWPKEYPPNKNCVWQVVAPTQYRISVKFEFFELEGNEVCKYDYVEIWSGLSSESKLHGKFCGAEVPEVITSQFNNMRIEFKSDNTVSKKGFKAHFFSDKDECSKDNGGCQHECVNTMGSYMCQCRNGFVLHDNKHDCKEAECEQKIHSPSGLITSPNWPDKYPSRKECTWEISATPGHRIKLAFSEFEIEQHQECAYDHLEVFDGETEKSPILGRLCGNKIPDPLVATGNKMFVRFVSDASVQRKGFQATHSTECGGRLKAESKPRDLYSHAQFGDNNYPGQVDCEWLLVSERGSRLELSFQTFEVEEEADCGYDYVELFDGLDSTAVGLGRFCGSGPPEEIYSIGDSVLIHFHTDDTINKKGFHIRYKSIRYPDTTHTKK
notes: Human tolloid-like 1 (TLL1), functional enzyme lacking the signal peptide and the latency pro-domain; encoded by nucleotides 1089-3686 of NM_012464.4 (mRNA variant 1 TLL1); mutation found in ASD6 patients, in the CUB3 domain; Same construct as m1 (procollagen I alpha 1 signal peptide for secretion, C-terminal 7xHis) with the point mutation; also called Ile629Val; mutation 3; source: HT-1080 …
For B3, the “cleavage of chordin (densitometry of the intact chordin band after SDS/PAGE), activity against wild-type TLL1” value in assay [2] is ~25 % lower than wild-type TLL1. Besides, in assay [1], the Ka amounted to 41000 M⁻¹, the dissociation constant Kd is 25 µM, the koff was 0.00091 s⁻¹ and the kon turned out to be 37 M⁻¹ s⁻¹.

B4: recombinant TLL1 mutated variant M182L (enzyme, human, UniProt O43897-1 148-1013, looked up)
chain: AATSRTERIWPGGVIPYVIGGNFTGSQRAMFKQALRHWEKHTCVTFIERSDEESYIVFTYRPCGCCSYVGRRGNGPQAISIGKNCDKFGIVVHELGHVIGFWHEHTRPDRDNHVTIIRENIQPGQEYNFLKMEPGEVNSLGERYDFDSIMHYARNTFSRGMFLDTILPSRDDNGIRPAIGQRTRLSKGDIAQARKLYRCPACGETLQESNGNLSSPGFPNGYPSYTHCIWRVSVTPGEKIVLNFTTMDLYKSSLCWYDYIEVRDGYWRKSPLLGRFCGDKLPEVLTSTDSRMWIEFRSSSNWVGKGFAAVYEAICGGEIRKNEGQIQSPNYPDDYRPMKECVWKITVSESYHVGLTFQSFEIERHDNCAYDYLEVRDGTSENSPLIGRFCGYDKPEDIRSTSNTLWMKFVSDGTVNKAGFAANFFKEEDECAKPDRGGCEQRCLNTLGSYQCACEPGYELGPDRRSCEAACGGLLTKLNGTITTPGWPKEYPPNKNCVWQVVAPTQYRISVKFEFFELEGNEVCKYDYVEIWSGLSSESKLHGKFCGAEVPEVITSQFNNMRIEFKSDNTVSKKGFKAHFFSDKDECSKDNGGCQHECVNTMGSYMCQCRNGFVLHDNKHDCKEAECEQKIHSPSGLITSPNWPDKYPSRKECTWEISATPGHRIKLAFSEFEIEQHQECAYDHLEVFDGETEKSPILGRLCGNKIPDPLVATGNKMFVRFVSDASVQRKGFQATHSTECGGRLKAESKPRDLYSHAQFGDNNYPGQVDCEWLLVSERGSRLELSFQTFEVEEEADCGYDYVELFDGLDSTAVGLGRFCGSGPPEEIYSIGDSVLIHFHTDDTINKKGFHIRYKSIRYPDTTHTKK
notes: Human tolloid-like 1 (TLL1), functional enzyme lacking the signal peptide and the latency pro-domain; encoded by nucleotides 1089-3686 of NM_012464.4 (mRNA variant 1 TLL1); mutation found in ASD6 patients, in the catalytic domain; Same construct as m1 (procollagen I alpha 1 signal peptide for secretion, C-terminal 7xHis) with the point mutation; also called Met182Leu; mutation 1; source: HT-1080 …
Regarding B4, the “cleavage of chordin (densitometry of the intact chordin band after SDS/PAGE), activity against wild-type TLL1” value in assay [2] is 50 % lower than wild-type TLL1. In assay [1], the Ka worked out at 24000 M⁻¹, the dissociation constant Kd worked out at 42 µM, the koff worked out at 0.0018 s⁻¹ and the association rate constant (kon) turned out to be 43 M⁻¹ s⁻¹.
